According to patent publication US20070111265A1, “Ligands for mineralocorticoid receptor (MR) and methods for screening for or designing MR ligands” (Van Andel Research Institute, priority 2005, published 2007):
“Also recorded” adds a separate entry of the source. Blank lines part the entries; values can stand above or below the molecule they belong to. No end group written: not given here.

Legend:
[1] = target: T1, purified MR LBD/corticosterone complex (Homo sapiens, UniProt P08235, C808S); experiment: AlphaScreen binding of biotinylated coactivator/corepressor peptides (FIG. 1B); conditions: corticosterone-bound MR LBD
T1 construct: made in house; host or cells: E. coli BL21DE3 (pET24a)
T1 sequence (P08235 727-984 C808S): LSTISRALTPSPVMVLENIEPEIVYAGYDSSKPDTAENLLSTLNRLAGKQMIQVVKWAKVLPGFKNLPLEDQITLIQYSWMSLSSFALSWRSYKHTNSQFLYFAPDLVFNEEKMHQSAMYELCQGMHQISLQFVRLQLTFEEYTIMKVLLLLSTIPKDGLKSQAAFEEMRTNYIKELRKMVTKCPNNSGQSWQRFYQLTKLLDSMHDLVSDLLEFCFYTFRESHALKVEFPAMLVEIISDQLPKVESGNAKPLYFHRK
Description: (B) Binding of various peptides containing coactivator or corepressor motifs to the purified MR LBD/corticosterone complex as measured by AlphaScreen assays. The background reading with the MR LBD alone is less than 200.
(§1) The binding of various peptide motifs to MR was determined by AlphaScreen assays using a hexahistidine detection kit from Perkin-Elmer. MR proteins were prepared as 6×His-GST fusion proteins for the assays.
The biotinylated peptides that were used in FIG. 1B are listed below in Table 1: […]

MR LBD = target: T2, MR LBD (Homo sapiens, UniProt P08235, C808S); experiment: Peptide profiling: unlabeled peptides compete off SRC2-3 binding to MR (FIG. 1C); conditions: unlabeled peptide 500 nM; 20 nM corticosterone or aldosterone
T2 construct: made in house; host or cells: E. coli BL21DE3 (pET24a)
T2 sequence (P08235 727-984 C808S): T1 sequence (P08235 727-984 C808S)
Description: The cofactors that contain a pair of LXXLL motifs with strong binding affinity to MR are boxed. All peptides have identical length of 15 residues except for SRC1-4 motif, which terminates at position +7 relative to the first leucines (L+1) in the LXXLL motif, and for the AR peptides and the corepressor motifs, which are longer than the coactivator motifs. Sequences of peptides are listed in experimental procedures.
as §1
The unlabeled peptides that were used in FIG. 1C are listed below in Table 2:
MR is the least studied member among the classical steroid hormone receptors and its physiological coactivators have not been clearly documented. To gain insights into which coactivator is physiologically relevant to MR, the inventors performed peptide profiling experiments using a panel of 38 unlabeled peptides to compete off the binding of the third LXXLL motif of SRC2 (also known as TIF2/GRIP1) to MR. […] The strong binding of the SRC1-4 motif and the PGC1 motifs is consistent with previous studies of the binding of LXXLL motifs to oxosteroid receptors (Hultman et al., 2005; Wu et al., 2004).

MR = target: T3, MR (Homo sapiens, UniProt P08235); experiment: IC50 (µM)
T3 construct: receptor expression vector (pRS vector) encoding full-length GR and MR respectively (ATCC); host or cells: Cos-7
Source text: Table printed on a drawing sheet, FIG. 3D
Head of the field: IC50 (µM)
The patent's description of the figure: FIG. 3.
First copying reader's note: The head of the sequence column numbers the residue positions relative to the first leucine of the LXXLL motif; the last two rows are protein fragments given as residue ranges.

[2] = system: MR S810 mutated to leucine or methionine; conditions: Geller et al., 2000; cited from earlier work

T3 sequence (P08235 whole entry, looked up): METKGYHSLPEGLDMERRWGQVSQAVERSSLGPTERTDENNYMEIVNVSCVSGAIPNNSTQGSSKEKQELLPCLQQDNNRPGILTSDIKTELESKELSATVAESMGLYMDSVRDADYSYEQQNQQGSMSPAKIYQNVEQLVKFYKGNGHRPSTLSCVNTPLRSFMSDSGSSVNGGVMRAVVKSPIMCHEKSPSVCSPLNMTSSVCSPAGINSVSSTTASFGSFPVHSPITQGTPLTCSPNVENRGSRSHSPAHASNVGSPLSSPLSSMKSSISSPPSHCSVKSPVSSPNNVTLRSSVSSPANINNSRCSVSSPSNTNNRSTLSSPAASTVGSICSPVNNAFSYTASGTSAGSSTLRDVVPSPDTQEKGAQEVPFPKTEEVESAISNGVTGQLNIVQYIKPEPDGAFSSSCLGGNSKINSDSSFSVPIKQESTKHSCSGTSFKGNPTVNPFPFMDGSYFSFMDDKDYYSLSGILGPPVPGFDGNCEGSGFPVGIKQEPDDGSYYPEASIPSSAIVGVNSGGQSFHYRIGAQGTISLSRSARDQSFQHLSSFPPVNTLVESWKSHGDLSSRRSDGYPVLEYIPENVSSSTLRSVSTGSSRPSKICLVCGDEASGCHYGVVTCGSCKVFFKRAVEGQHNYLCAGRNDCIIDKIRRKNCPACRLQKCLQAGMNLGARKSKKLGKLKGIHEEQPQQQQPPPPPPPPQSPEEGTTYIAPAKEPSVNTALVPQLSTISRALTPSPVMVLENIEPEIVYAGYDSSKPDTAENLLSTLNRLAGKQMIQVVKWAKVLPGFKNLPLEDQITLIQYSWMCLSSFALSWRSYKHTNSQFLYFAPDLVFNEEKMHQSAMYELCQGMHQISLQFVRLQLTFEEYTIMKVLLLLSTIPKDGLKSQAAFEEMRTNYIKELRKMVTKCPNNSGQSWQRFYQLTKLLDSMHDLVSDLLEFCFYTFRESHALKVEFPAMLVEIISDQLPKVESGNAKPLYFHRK

Molecule: WAEFSILRELLAQDV (listed as Homo sapiens) [PGC1β-2, 35]
inhibition of SRC2-3 binding to MR (MR LBD): most potent competitors

Molecule: QEKHRILHKLLQNGN [SRC3-2]
IC50 (MR): 4600 nM

Molecule: SGNLVPDAASKHKQLSELLRGGSG (listed as Homo sapiens) [CBP]
interaction with purified MR LBD [1]: weakly

Molecule: CC(=O)[C@H]1CC[C@H]2[C@@H]3CCC4=CC(=O)CC[C@]4(C)[C@H]3CC[C@]12C [progesterone]
activation of S810-mutated MR [2]: activated efficiently; also recorded: allows the receptor to respond

Molecule: C[C@]12CCC(=O)C=C1CC[C@@H]1[C@@H]2C(=O)C[C@@]2(C)[C@H]1CC[C@]2(O)C(=O)CO [cortisone]
activation of S810-mutated MR [2]: activated efficiently

Molecule: KENNALLRYLLDRDD [SRC3-3]
IC50 (MR): 1400 nM

Molecule: PRQGSILYSLLTSSK (listed as Homo sapiens) [DAX1-3, 18]
inhibition of SRC2-3 binding to MR (MR LBD): most potent competitors

Now from value to molecule:

interaction with purified MR LBD [1]: failed to interact
Molecule: GHSFADPASNLGLEDIIRKALMGSF [NCOR-2]

interaction with purified MR LBD [1]: weakly
Molecule: GHGEDFSKVSQNPILTSLLQITGN (listed as Homo sapiens) [TRAP220]

interaction with purified MR LBD [1]: strongly
Molecule: AEEPSLLKKLLLAPA [PGC1]
